Key:
[1] = target: T1, T22C8.4 (T22C8.4) (Caenorhabditis elegans) (UniProt Q22677)
T1 sequence: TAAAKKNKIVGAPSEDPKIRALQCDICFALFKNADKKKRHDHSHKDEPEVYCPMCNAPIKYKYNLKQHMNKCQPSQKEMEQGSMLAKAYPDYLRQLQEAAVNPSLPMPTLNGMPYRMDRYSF

[2] = target: T2, ztf-27 (T09F3.1) (Caenorhabditis elegans) (UniProt G5EDA0)
T2 sequence: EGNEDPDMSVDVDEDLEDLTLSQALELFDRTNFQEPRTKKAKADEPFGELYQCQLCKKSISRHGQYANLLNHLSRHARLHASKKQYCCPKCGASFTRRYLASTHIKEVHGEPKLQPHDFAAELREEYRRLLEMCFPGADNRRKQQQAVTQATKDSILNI

[3] = target: T3, K11D2.4 (K11D2.4) (Caenorhabditis elegans) (UniProt G5EBU1)
T3 sequence: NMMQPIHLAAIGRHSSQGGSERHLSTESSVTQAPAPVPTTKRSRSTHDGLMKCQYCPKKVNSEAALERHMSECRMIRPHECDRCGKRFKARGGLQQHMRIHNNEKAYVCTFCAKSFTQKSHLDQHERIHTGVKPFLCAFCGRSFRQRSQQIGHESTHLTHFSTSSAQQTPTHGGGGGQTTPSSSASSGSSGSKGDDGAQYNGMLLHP

[4] = target: T4, M03D4.4 (M03D4.4) (Caenorhabditis elegans) (UniProt Q21494)
T4 sequence: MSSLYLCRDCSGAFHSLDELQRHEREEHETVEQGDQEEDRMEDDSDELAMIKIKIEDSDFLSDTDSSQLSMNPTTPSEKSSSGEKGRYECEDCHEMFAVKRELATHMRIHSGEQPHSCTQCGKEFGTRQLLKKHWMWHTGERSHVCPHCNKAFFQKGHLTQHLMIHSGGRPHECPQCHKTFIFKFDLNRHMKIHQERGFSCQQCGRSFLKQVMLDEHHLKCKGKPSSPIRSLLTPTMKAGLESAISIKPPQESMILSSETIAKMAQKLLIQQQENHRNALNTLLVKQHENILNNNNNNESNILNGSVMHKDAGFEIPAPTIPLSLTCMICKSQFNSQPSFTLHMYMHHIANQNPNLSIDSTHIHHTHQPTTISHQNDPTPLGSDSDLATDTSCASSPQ

[5] = target: atf-7 (C07G2.2) (Caenorhabditis elegans) (UniProt Q86MD3)
Chain of atf-7 (C07G2.2) (Caenorhabditis elegans) (Q86MD3 339-508): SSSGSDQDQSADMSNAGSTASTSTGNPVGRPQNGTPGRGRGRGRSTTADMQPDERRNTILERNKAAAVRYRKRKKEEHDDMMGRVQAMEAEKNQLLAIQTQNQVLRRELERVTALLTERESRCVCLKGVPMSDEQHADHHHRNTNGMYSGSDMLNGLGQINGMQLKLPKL

[6] = target: T5, bed-3 (F25H8.6) (Caenorhabditis elegans) (UniProt Q19787)
T5 sequence: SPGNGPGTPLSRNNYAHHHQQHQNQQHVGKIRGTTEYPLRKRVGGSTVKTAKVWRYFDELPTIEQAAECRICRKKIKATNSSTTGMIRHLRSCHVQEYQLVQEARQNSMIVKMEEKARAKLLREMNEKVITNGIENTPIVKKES

[7] = target: T6, F55C5.11 (F55C5.11) (Caenorhabditis elegans) (UniProt Q1ZXU0)
T6 sequence: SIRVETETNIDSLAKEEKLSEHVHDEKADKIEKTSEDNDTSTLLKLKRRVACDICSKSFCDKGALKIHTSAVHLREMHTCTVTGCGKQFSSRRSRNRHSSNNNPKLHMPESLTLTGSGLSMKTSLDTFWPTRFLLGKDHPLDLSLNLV

CCCTGCTA (double strand) [8-mer CCCTGCTA]
binding signal (PBM E-score (-0.5 to 0.5)) [1]: 0.486

ACACCAAT (double strand) [8-mer ACACCAAT]
binding signal (PBM E-score (-0.5 to 0.5)) [2]: 0.478

CCCCTGCA (double strand) [8-mer CCCCTGCA]
binding signal (PBM E-score (-0.5 to 0.5)) [1]: 0.493

TGGTGTAA (double strand) [8-mer TGGTGTAA]
binding signal (PBM E-score (-0.5 to 0.5)) [2]: 0.48

CCCTGCTC (double strand) [8-mer CCCTGCTC]
binding signal (PBM E-score (-0.5 to 0.5)) [1]: 0.479

TACACCAA (double strand) [8-mer TACACCAA]
binding signal (PBM E-score (-0.5 to 0.5)) [2]: 0.483

ATGGTGTA (double strand) [8-mer ATGGTGTA]
binding signal (PBM E-score (-0.5 to 0.5)) [2]: 0.485

GTGCACCA (double strand) [8-mer GTGCACCA]
binding signal (PBM E-score (-0.5 to 0.5)) [2]: 0.484

AATGGTGT (double strand) [8-mer AATGGTGT]
binding signal (PBM E-score (-0.5 to 0.5)) [2]: 0.477

CGAAAAAA (double strand) [8-mer CGAAAAAA]
binding signal (PBM E-score (-0.5 to 0.5)) [3]: 0.495

ACCCTGCT (double strand) [8-mer ACCCTGCT]
binding signal (PBM E-score (-0.5 to 0.5)) [1]: 0.487

AGCAGGGA (double strand) [8-mer AGCAGGGA]
binding signal (PBM E-score (-0.5 to 0.5)) [1]: 0.466

GTCATGCA (double strand) [8-mer GTCATGCA]
binding signal (PBM E-score (-0.5 to 0.5)) [4]: 0.495

CCCCCTGC (double strand) [8-mer CCCCCTGC]
binding signal (PBM E-score (-0.5 to 0.5)) [1]: 0.488

ACGTCACT (double strand) [8-mer ACGTCACT]
binding signal (PBM E-score (-0.5 to 0.5)) [5]: 0.496

TCCATGCA (double strand) [8-mer TCCATGCA]
binding signal (PBM E-score (-0.5 to 0.5)) [4]: 0.491

GCTCTCGA (double strand) [8-mer GCTCTCGA]
binding signal (PBM E-score (-0.5 to 0.5)) [6]: 0.491

ATGCATGC (double strand) [8-mer ATGCATGC]
binding signal (PBM E-score (-0.5 to 0.5)) [4]: 0.491

GGTGTCAC (double strand) [8-mer GGTGTCAC]
binding signal (PBM E-score (-0.5 to 0.5)) [7]: 0.486

TGCATGAA (double strand) [8-mer TGCATGAA]
binding signal (PBM E-score (-0.5 to 0.5)) [4]: 0.495

ATGTGACA (double strand) [8-mer ATGTGACA]
binding signal (PBM E-score (-0.5 to 0.5)) [7]: 0.489

GTGCATGA (double strand) [8-mer GTGCATGA]
binding signal (PBM E-score (-0.5 to 0.5)) [4]: 0.494

AGTCTCGA (double strand) [8-mer AGTCTCGA]
binding signal (PBM E-score (-0.5 to 0.5)) [6]: 0.494

ATGGTGTG (double strand) [8-mer ATGGTGTG]
binding signal (PBM E-score (-0.5 to 0.5)) [2]: 0.477

TGCGCCAA (double strand) [8-mer TGCGCCAA]
binding signal (PBM E-score (-0.5 to 0.5)) [2]: 0.478

ACTCTCGA (double strand) [8-mer ACTCTCGA]
binding signal (PBM E-score (-0.5 to 0.5)) [6]: 0.49

GGTCTCGA (double strand) [8-mer GGTCTCGA]
binding signal (PBM E-score (-0.5 to 0.5)) [6]: 0.491

AGCAGGGG (double strand) [8-mer AGCAGGGG]
binding signal (PBM E-score (-0.5 to 0.5)) [1]: 0.499

AAAAAACA (double strand) [8-mer AAAAAACA]
binding signal (PBM E-score (-0.5 to 0.5)) [3]: 0.495

AAAAAAGA (double strand) [8-mer AAAAAAGA]
binding signal (PBM E-score (-0.5 to 0.5)) [3]: 0.495

AGTGTCAC (double strand) [8-mer AGTGTCAC]
binding signal (PBM E-score (-0.5 to 0.5)) [7]: 0.487

GCATGGAA (double strand) [8-mer GCATGGAA]
binding signal (PBM E-score (-0.5 to 0.5)) [4]: 0.491

GATCCCGA (double strand) [8-mer GATCCCGA]
binding signal (PBM E-score (-0.5 to 0.5)) [6]: 0.49

CAGCAGGG (double strand) [8-mer CAGCAGGG]
binding signal (PBM E-score (-0.5 to 0.5)) [1]: 0.494

ACGTCACC (double strand) [8-mer ACGTCACC]
binding signal (PBM E-score (-0.5 to 0.5)) [5]: 0.496

CCCCTGCC (double strand) [8-mer CCCCTGCC]
binding signal (PBM E-score (-0.5 to 0.5)) [1]: 0.479

AATGCATG (double strand) [8-mer AATGCATG]
binding signal (PBM E-score (-0.5 to 0.5)) [4]: 0.494

ACCCCTGC (double strand) [8-mer ACCCCTGC]
binding signal (PBM E-score (-0.5 to 0.5)) [1]: 0.494

GTGTCACA (double strand) [8-mer GTGTCACA]
binding signal (PBM E-score (-0.5 to 0.5)) [7]: 0.488

AAAAAAGT (double strand) [8-mer AAAAAAGT]
binding signal (PBM E-score (-0.5 to 0.5)) [3]: 0.494

CTCGAGAC (double strand) [8-mer CTCGAGAC]
binding signal (PBM E-score (-0.5 to 0.5)) [6]: 0.497

ACTCCCGA (double strand) [8-mer ACTCCCGA]
binding signal (PBM E-score (-0.5 to 0.5)) [6]: 0.49

GTGTGACA (double strand) [8-mer GTGTGACA]
binding signal (PBM E-score (-0.5 to 0.5)) [7]: 0.486

TACGCCAA (double strand) [8-mer TACGCCAA]
binding signal (PBM E-score (-0.5 to 0.5)) [2]: 0.48

TCCCGGGA (double strand) [8-mer TCCCGGGA]
binding signal (PBM E-score (-0.5 to 0.5)) [6]: 0.491

AATAAAAA (double strand) [8-mer AATAAAAA]
binding signal (PBM E-score (-0.5 to 0.5)) [3]: 0.496

AGGTGACA (double strand) [8-mer AGGTGACA]
binding signal (PBM E-score (-0.5 to 0.5)) [7]: 0.486

ATGGTGCA (double strand) [8-mer ATGGTGCA]
binding signal (PBM E-score (-0.5 to 0.5)) [2]: 0.487

GATCTCGA (double strand) [8-mer GATCTCGA]
binding signal (PBM E-score (-0.5 to 0.5)) [6]: 0.493

CCCCTGCG (double strand) [8-mer CCCCTGCG]
binding signal (PBM E-score (-0.5 to 0.5)) [1]: 0.493

TCCCGAGA (double strand) [8-mer TCCCGAGA]
binding signal (PBM E-score (-0.5 to 0.5)) [6]: 0.493

TCTCGAGA (double strand) [8-mer TCTCGAGA]
binding signal (PBM E-score (-0.5 to 0.5)) [6]: 0.499

CTCGAGAG (double strand) [8-mer CTCGAGAG]
binding signal (PBM E-score (-0.5 to 0.5)) [6]: 0.493

ATCTCGAG (double strand) [8-mer ATCTCGAG]
binding signal (PBM E-score (-0.5 to 0.5)) [6]: 0.497

ACACCATA (double strand) [8-mer ACACCATA]
binding signal (PBM E-score (-0.5 to 0.5)) [2]: 0.479

CATGCATG (double strand) [8-mer CATGCATG]
binding signal (PBM E-score (-0.5 to 0.5)) [4]: 0.498

ACAAAAAA (double strand) [8-mer ACAAAAAA]
binding signal (PBM E-score (-0.5 to 0.5)) [3]: 0.494

CGCATGAA (double strand) [8-mer CGCATGAA]
binding signal (PBM E-score (-0.5 to 0.5)) [4]: 0.491

ATGCATGA (double strand) [8-mer ATGCATGA]
binding signal (PBM E-score (-0.5 to 0.5)) [4]: 0.499

ACGCATGA (double strand) [8-mer ACGCATGA]
binding signal (PBM E-score (-0.5 to 0.5)) [4]: 0.495

GGTGACAC (double strand) [8-mer GGTGACAC]
binding signal (PBM E-score (-0.5 to 0.5)) [7]: 0.496

GGGTGACA (double strand) [8-mer GGGTGACA]
binding signal (PBM E-score (-0.5 to 0.5)) [7]: 0.494

ATCATGCA (double strand) [8-mer ATCATGCA]
binding signal (PBM E-score (-0.5 to 0.5)) [4]: 0.497

TGCACCAA (double strand) [8-mer TGCACCAA]
binding signal (PBM E-score (-0.5 to 0.5)) [2]: 0.488

CTGTCACC (double strand) [8-mer CTGTCACC]
binding signal (PBM E-score (-0.5 to 0.5)) [7]: 0.487

CCTCGAGA (double strand) [8-mer CCTCGAGA]
binding signal (PBM E-score (-0.5 to 0.5)) [6]: 0.492

ACATGCAT (double strand) [8-mer ACATGCAT]
binding signal (PBM E-score (-0.5 to 0.5)) [4]: 0.491

GGTGACAA (double strand) [8-mer GGTGACAA]
binding signal (PBM E-score (-0.5 to 0.5)) [7]: 0.487

GTGACAAA (double strand) [8-mer GTGACAAA]
binding signal (PBM E-score (-0.5 to 0.5)) [7]: 0.484

TGGTGACA (double strand) [8-mer TGGTGACA]
binding signal (PBM E-score (-0.5 to 0.5)) [7]: 0.487

CACGTCAC (double strand) [8-mer CACGTCAC]
binding signal (PBM E-score (-0.5 to 0.5)) [5]: 0.496

CGGTGACA (double strand) [8-mer CGGTGACA]
binding signal (PBM E-score (-0.5 to 0.5)) [7]: 0.488

TGGTGCAA (double strand) [8-mer TGGTGCAA]
binding signal (PBM E-score (-0.5 to 0.5)) [2]: 0.483

TACACCCA (double strand) [8-mer TACACCCA]
binding signal (PBM E-score (-0.5 to 0.5)) [2]: 0.477

GATCATGC (double strand) [8-mer GATCATGC]
binding signal (PBM E-score (-0.5 to 0.5)) [4]: 0.493

CTCGAGAA (double strand) [8-mer CTCGAGAA]
binding signal (PBM E-score (-0.5 to 0.5)) [6]: 0.491

ATACGTCA (double strand) [8-mer ATACGTCA]
binding signal (PBM E-score (-0.5 to 0.5)) [5]: 0.494

TGTGACAA (double strand) [8-mer TGTGACAA]
binding signal (PBM E-score (-0.5 to 0.5)) [7]: 0.485

TCATGCAA (double strand) [8-mer TCATGCAA]
binding signal (PBM E-score (-0.5 to 0.5)) [4]: 0.493
